In the supplement of paper PMC11136658:

Tested on: peptide library, one residue held at a place counted from the Y acceptor
Assay: relative phosphorylation of the sub-library (ratio to the mean residue at this position); higher = residue favoured
Summary of the method: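 Each value expresses phosphorylation relative to the mean randomized residue. Purified recombinant kinases acted for 90 min in 384-well plates on biotinylated Tyr-centred peptide library mixtures, with one residue fixed at one position from −5 to +5, in the presence of 50 μM ATP with γ-32P-ATP. Signals were read by phosphorimaging after capture on streptavidin membranes, then normalized per position to the sum of the 18 randomized residues (16 in the Ser/Thr-free library) and multiplied by that number.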

Chain of FYN, construct: Full length, human (P06241 whole entry, looked up): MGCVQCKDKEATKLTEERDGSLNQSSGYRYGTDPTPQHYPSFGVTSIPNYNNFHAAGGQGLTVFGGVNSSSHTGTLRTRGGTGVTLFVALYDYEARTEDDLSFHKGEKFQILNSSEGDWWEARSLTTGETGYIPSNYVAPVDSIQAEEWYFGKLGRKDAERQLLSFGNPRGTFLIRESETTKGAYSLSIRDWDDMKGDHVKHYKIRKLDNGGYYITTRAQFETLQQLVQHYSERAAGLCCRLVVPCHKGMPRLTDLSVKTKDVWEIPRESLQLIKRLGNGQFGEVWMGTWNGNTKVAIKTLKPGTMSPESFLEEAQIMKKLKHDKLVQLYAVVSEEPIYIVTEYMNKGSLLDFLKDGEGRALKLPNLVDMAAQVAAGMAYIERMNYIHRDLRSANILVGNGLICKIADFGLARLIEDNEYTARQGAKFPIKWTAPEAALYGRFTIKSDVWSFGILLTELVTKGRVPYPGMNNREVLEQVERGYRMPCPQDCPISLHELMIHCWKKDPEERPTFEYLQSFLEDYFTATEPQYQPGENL
Chain of RET, construct: aa658-end, human (P07949 658-1114, looked up): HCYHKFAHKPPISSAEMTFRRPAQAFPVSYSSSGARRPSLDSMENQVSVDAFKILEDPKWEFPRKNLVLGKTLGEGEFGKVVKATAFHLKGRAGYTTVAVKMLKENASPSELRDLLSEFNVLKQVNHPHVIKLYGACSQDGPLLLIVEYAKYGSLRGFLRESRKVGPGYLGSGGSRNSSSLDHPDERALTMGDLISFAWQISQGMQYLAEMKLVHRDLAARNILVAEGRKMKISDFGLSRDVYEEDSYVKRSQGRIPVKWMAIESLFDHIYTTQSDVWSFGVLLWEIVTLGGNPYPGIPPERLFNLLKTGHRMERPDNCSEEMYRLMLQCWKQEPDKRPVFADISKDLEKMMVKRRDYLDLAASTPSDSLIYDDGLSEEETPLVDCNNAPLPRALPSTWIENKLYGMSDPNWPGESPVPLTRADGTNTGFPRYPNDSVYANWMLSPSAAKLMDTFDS
Chain of FLT1, construct: aa748-end, human (P17948 748-1338, looked up): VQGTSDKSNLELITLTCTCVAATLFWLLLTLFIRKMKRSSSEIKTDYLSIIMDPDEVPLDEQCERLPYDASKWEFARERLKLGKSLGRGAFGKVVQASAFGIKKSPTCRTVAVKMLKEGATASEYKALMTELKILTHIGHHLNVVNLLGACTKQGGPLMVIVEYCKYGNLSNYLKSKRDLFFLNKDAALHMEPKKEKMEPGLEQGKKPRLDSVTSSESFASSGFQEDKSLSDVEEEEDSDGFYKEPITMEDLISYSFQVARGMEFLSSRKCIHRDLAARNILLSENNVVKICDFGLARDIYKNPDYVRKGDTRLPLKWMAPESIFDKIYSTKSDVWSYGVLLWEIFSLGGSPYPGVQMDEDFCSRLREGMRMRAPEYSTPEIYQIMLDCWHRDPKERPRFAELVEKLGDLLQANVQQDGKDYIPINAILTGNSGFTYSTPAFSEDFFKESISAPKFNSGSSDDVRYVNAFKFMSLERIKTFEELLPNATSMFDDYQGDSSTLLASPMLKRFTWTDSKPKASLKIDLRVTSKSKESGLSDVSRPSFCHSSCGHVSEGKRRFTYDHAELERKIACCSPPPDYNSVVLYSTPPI

RET, construct: aa658-end, human (from UniProt P07949)
relative phosphorylation
Conditions	at +1	at +2	at +3	at +4	at +5	at -1	at -2	at -3	at -4	at -5
A fixed	0.957	0.877	0.845	0.859	0.923	0.865	0.967	0.857	1.08	1.05
D fixed	0.306	0.726	0.705	0.87	0.823	1.29	0.865	1.04	1.02	0.925
E fixed	0.415	0.976	0.636	0.831	0.783	1.2	0.885	1.43	1.1	0.86
F fixed	1.49	1.1	1.12	1.14	0.844	1.02	0.624	0.934	0.881	0.91
G fixed	0.541	0.643	0.88	1.05	1.44	0.5	1.34	1.18	1.27	1.23
H fixed	1.37	0.942	1.17	1.1	1.14	1.4	1.04	1.11	1	1.04
I fixed	1.59	0.802	1.28	0.73	0.765	1.46	0.674	0.606	0.749	0.786
K fixed	0.629	0.939	0.582	1.12	1.17	0.656	1.3	1.11	1.26	1.33
L fixed	1.41	1.07	1.09	0.83	0.76	1.12	0.768	0.748	0.888	0.872
M fixed	1.29	0.996	1.2	1.01	0.972	0.76	0.712	0.769	0.931	0.875
N fixed	0.513	1.21	0.865	1.08	1.09	1.29	1.2	1.14	0.859	1.05
P fixed	0.494	0.965	1.24	1.17	1.54	0.896	1.19	1.15	1.23	1.1
Q fixed	1.06	1.11	1.01	1.22	1.05	1	1.26	0.964	1.16	1.05
R fixed	1.02	1.37	0.818	1.34	1.29	0.672	1.52	1.3	1.31	1.42
S fixed	0.889	0.97	0.884	0.888	1	0.695	1.24	1.09	0.89	0.95
T fixed	0.943	1.01	0.962	0.874	0.952	0.984	1.04	1.04	0.757	0.892
V fixed	1.42	0.924	1.15	0.775	0.635	1.12	0.708	0.646	0.735	0.773
W fixed	1.66	1.37	1.56	1.11	0.819	1.07	0.668	0.879	0.883	0.882
pThr fixed	0.469	1.04	0.392	0.595	0.607	0.878	0.723	1.02	0.966	0.876
pTyr fixed	1.17	1.45	0.459	0.586	0.622	1.46	0.933	1.85	1.23	1.15

FLT1, construct: aa748-end, human (from UniProt P17948)
relative phosphorylation
Conditions	at +1	at +2	at +3	at +4	at +5	at -1	at -2	at -3	at -4	at -5
A fixed	0.624	0.689	0.604	0.797	0.722	0.496	0.885	0.899	0.91	0.956
D fixed	0.478	1.49	0.636	1.1	1.01	3.57	1.75	1.66	1.4	1.24
E fixed	0.487	0.899	0.582	0.817	0.933	2.46	1.57	1.66	1.38	1.1
F fixed	2.3	1.38	1.99	0.981	1.13	0.92	0.797	1.01	0.956	1.14
G fixed	0.478	0.439	0.633	0.845	0.911	0.446	1.11	1.03	1.1	1.1
H fixed	1.38	1.17	0.7	1.3	1.17	1.18	1.07	1.22	1.12	1.24
I fixed	1.34	0.698	1.46	0.709	0.639	0.948	0.597	0.599	0.653	0.745
K fixed	0.683	1.21	0.625	1.39	1.27	0.432	1.01	0.853	1.01	1.14
L fixed	0.873	0.86	1.63	0.787	0.844	0.639	0.633	0.729	0.693	0.727
M fixed	1	0.867	1.6	0.8	0.786	0.559	0.696	0.73	0.797	0.801
N fixed	0.533	1.19	0.755	1.06	1.11	1.16	1.16	1.17	0.929	0.953
P fixed	0.415	0.574	1.02	1.4	1.28	0.525	1.08	0.781	0.897	1.03
Q fixed	0.957	0.926	0.684	0.88	1.09	0.81	1.14	1.05	1.02	0.936
R fixed	0.875	1.53	0.729	1.46	1.25	0.458	1.13	1.01	1.1	1.11
S fixed	0.67	0.923	0.698	0.968	0.83	0.462	1.14	1.08	0.867	0.982
T fixed	0.987	1.11	0.666	0.83	0.839	0.705	1.04	0.906	0.887	0.891
V fixed	1.94	0.766	1.09	0.681	0.723	0.747	0.655	0.594	0.701	0.763
W fixed	1.63	1.32	1.27	0.985	1.12	0.649	0.724	1.01	1.34	1.02
pThr fixed	0.947	2.03	0.788	1.08	0.963	2.55	1.42	2.05	1.86	1.78
pTyr fixed	2.58	2.77	0.88	0.609	0.679	2.54	2.3	3.12	2.64	1.66

FYN, construct: Full length, human (from UniProt P06241)
relative phosphorylation
Conditions	at +1	at +2	at +3	at +4	at +5	at -1	at -2	at -3	at -4	at -5
A fixed	1.68	1.07	0.544	0.857	0.903	0.622	1.04	0.787	1.08	1.02
D fixed	0.925	0.762	0.546	1.02	0.987	0.867	1.77	2.4	1.64	1.5
E fixed	1.79	1.76	0.601	1	0.951	1.08	1.95	2.8	1.89	1.35
F fixed	0.656	1.08	3.35	1.23	1.16	0.885	0.483	0.803	0.997	0.993
G fixed	3.49	0.728	0.941	1.03	1.03	0.467	1.38	0.91	1.17	1.14
H fixed	0.53	0.515	0.732	0.901	1.01	0.419	0.77	0.814	0.726	0.924
I fixed	0.861	1.06	1.72	0.735	0.718	3.38	0.717	0.641	0.796	0.833
K fixed	0.231	0.61	0.397	1.12	1.04	0.221	0.515	0.469	0.622	0.901
L fixed	0.635	1.02	1.39	0.912	0.92	1.76	0.716	0.672	0.906	0.933
M fixed	0.992	1.05	0.894	1.04	0.858	0.806	0.667	0.729	0.784	0.904
N fixed	0.504	0.806	0.455	0.81	1.03	0.33	1.34	1.26	0.903	0.97
P fixed	0.291	0.734	0.571	0.945	1.48	1.2	1.43	0.969	1.32	1.17
Q fixed	0.906	0.951	0.539	1.14	0.81	0.521	1.2	0.965	1.08	0.978
R fixed	0.311	0.79	0.728	1.14	1.22	0.227	0.612	0.56	0.744	0.886
S fixed	1.01	1.32	0.628	0.977	1.03	0.44	1.23	0.945	0.813	0.865
T fixed	0.895	1.39	0.92	0.861	0.996	1.33	0.774	0.79	0.733	0.779
V fixed	0.935	1.28	1.4	0.882	0.722	2.95	0.793	0.649	0.821	0.84
W fixed	1.36	1.08	1.64	1.38	1.14	0.497	0.606	0.838	0.973	1
pThr fixed	1.64	2.15	0.627	0.773	0.686	4.17	1.92	1.58	1.42	1.31
pTyr fixed	3.45	1.96	0.89	1.23	1.11	1.34	1.37	1.71	1.52	1.32
